Test results taken from article PMC8318917 (The Journal of Biological Chemistry, 2021).

Molecular target: T1, human TRADD death domain (199–312) (human, UniProt Q15628 199-312)
T1 sequence: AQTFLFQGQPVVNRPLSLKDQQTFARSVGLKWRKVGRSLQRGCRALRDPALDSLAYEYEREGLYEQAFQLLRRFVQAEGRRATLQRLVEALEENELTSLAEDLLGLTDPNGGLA
Test: NMR solution structure

B1: human p75 neurotrophin receptor death domain (330–427) (domain or fragment)
chain: KGDGGLYSSLPPAKREEVEKLLNGSAGDTWRHLAGELGYQPEHIDSFTHEACPVRALLASWATQDSATLDALLAALRRIQRADLVESLCSESTATSPV
B1: binds.
